Test results: the DeepSol protein solubility set

Test: soluble on expression in E. coli; label from the status in PepcDB or PDB records

Soluble on expression in E. coli, not soluble:
MGSDKIHHHHHHMGTDPIEARFEQLNVWRNGDKRAPHKPLLILLALASWQRGAREMRFAECEQKLGELIREFGPAAKAVHPEYPFWRLQNDGLWVVEADQEMRTRQSNSDPLKSELRAAGARGHFFADVAEELERRPALIGRVAQRVLDAHFPETLHEDILAAVGLEVSEETESTTRRRRDPNFRNAVLQAYQYRCAVCELDLRIGSITVGLEAAHVKWHQARGPDAVHNGVALCSLHHKLFDLGAFHIGADRRILVSEQVHGTSRFEEVLLRHHGALALEPVRSEHKVLRDFVGWHFDQVFKKEARPAT
MGSDKIHHHHHHMGTHTEAMPSTTFAQTAVLSQRQRATLNALSAFPQGAQVSEIAASLGLHVNTVRGHLEELVTKNLVRTAPLPSTGRGRPVLMYHATSATPETVAQEYLSLISLLIQHIDLRQPDEIDEVAKVLGKQWAHSIFADHHLEELNGEQTLITLINYLRHLGFDPEVEKTQDPTTSMLQLRTCPFGSMAHAPLSFVCRAHEGMLSAVEKTGGISFELTPLSAPHQCSIVAQLHGNETIHRQRGEEHPHAGHR
MGSDKIHHHHHHMGYAYLRGLRNARLQNNNDETSTVFRSCSVPTFQKMRSAYGRRVVKDVFAPNGGVFINRLVEYVTGQGHDFENMLAQKLAISEPLSSSAQVLPVYEHSLVFGLAERVCNDTSIGYALAYQCTLRDAGLVGYAVSASETAGEALYTLSRLSNVFEVVSASASGGLVDLRWDFGSQGKLDLRHWSEFIATLLVRSLKTLCTGAVAPVGVEFTHTAPSSSEQAVLAFGVKPTYRGRLNRLTFREQDLRQPLRSADAGLLRLLLEHAELLRRRPDRNSNDLSITVERLIMDGMSEGDASLAQVAESLDMSQRTLSRKLASEGTSFFAILEGVRKSLALRYLQQNEKSLSEISFALGYSSLSSFNDAFRRWYDQSPGSYRSDALKEAAVKS
MGSDKIHHHHHHMGYKNILIDFDDTIVDFYDAEEWAFHYMANVFNHKATKDDFLTFKKINHQHWEAFQQNKLTKSEVLSERFVNYFKHHQMEVDGHRADVLFRNGLAEAKVKYFDQTLETIVELSKRHDLYIVTNGVTETQKRRLNQTPLHKYIKKIFISEETGYQKPNPEFFNYVFNDIGEDERQHSIIVGDSLTSDILGGINAGIATCWFNFRGFDHNPGIIPDYEINSWKQLNDIVR
MGSDKIHHHHHHMHIAIASGKGGTGKTTLAVNLAVHAARSGHPTVLADCDVEEPNAHLFMPGEPVMTLTHSLPVPAVDKAKCLGDSCRKCVEECRFKALTWMKGVMAFSELCHGCGLCMMICPSGAITETTRPVGTVEIRTPQLPVPAGASAGAAALTLVSGRMRISEAMAPPLIREVKQQAHAVSAGTPNGLTFWDSPPGTSCPMISTVENADYSVLVTEPTPFGLHDLRLAVETLHTLGRPFGVVINRDGMGDGRVREYLDRHRIPLLGTVPHSPQAAQAVSSGRLLIDAVDGMTGCFDRLLHTVLRHAHNAAQHGQEKTA
MGSDKIHHHHHHMHLFKRAEMLNVIDTLATNYLKGKVRAVRLSVIALLSGGHILLEDIPGLGKTTLALALARALGLSFGRVQCTSDLLPSDITGLSILNRDENRFTFMPGPIFNNVVLMDEINRAMPKTQSALLEAMEERRVTVEGTTHPLPEPFLVIATQNPVEQVGTYPLPESQLDRFMVRSGIGYPPEAIEKAIIKGGSIRDGIRHLEPLVTVNDIIEAQRTVRESIYLSDKVVDYIHAIVAATRSHRAVTSGVSTRGAISMAETAKAHAYLEGRDYVIPEDVKAIAAPVGAHRLILGFDNENLDKGELLHAILATIPVPLA
MGSDKIHHHHHHMHLGVVVPRVDDHSTIELAVEAEGHGYDSVWLNELWGASSVVELTDIATRTDDIEIGSAILNVFSRSPAVLAMTATTLDRVSDGRAVLGLGTSTARSIENMHSMEFERPVRRAHETIDIIKQLMTGDERVTYDGEAVSVRGVPPLDRDVPVYHAALGPANRRVVARLADGWLPHMIAFSELESAFDYIAETARDADRDPDDITVAPYVPAVVHEDSERATEELRQHIAYYVGSGEGYRRAVAETYPDRAERIADAWQAGDRGEATELVTDEMTADLGIAGTPEQAREKRDKIADRAVIDRLLLTVPQQVDGELARKTIRALGPN
MGSDKIHHHHHHMHLTQSTISQQLARLEESVGHSLIDRTARPLQLTASGEYLIGYAQRILTLQQEAEAVLKDPAGSIPIRIGLPEDMMSTAMAEVFGLFAQEHRTIRLDVTSGLSRNLTERYRNGELDIVIVKESAASADCYASFPEEMAWFESENAITPLSEPIRLVTFPQGGLYRDEMFETLERERRRWYIAFTGSSLESVLVSVETGLGISLLPVSTTKGRRVRRYKSLGEASPMVVSIYTWEKAGLISQLVDHMTTVLHDRFQSGS
MGSDKIHHHHHHMHSLQRKVLRTICPDQKGLIARITNICYKHELNIVQNNEFVDHRTGRFFMRTELEGIFNDSTLLADLDSALPEGSVRELNPAGRRRIVILVTKEAHCLGDLLMKANYGGLDVEIAAVIGNHDTLRSLVERFDIPFELVSHEGLTRNEHDQKMADAIDAYQPDYVVLAKYMRVLTPEFVARFPNKIINIHHSFLPAFIGARPYHQAYERGVKIIGATAHYVNDNLDEGPIIMQDVIHVDHTYTAEDMMRAGRDVEKNVLSRALYKVLAQRVFVYGNRTIIL
MGSDKIHHHHHHMHTGPTVFKQLLQFLPRYEFNLCVRRHRGEYREKKFSTYDQFLCLAYAQMAGRESLRDIETCLNSHQEKLYHIGFRGDVSRTTLADANERRDWRIFQDFGHVLIGIAQQLYQADAISVELTQPLYAFDSTTIDLCLTLFPWAEFRKTKAAVKMHTLIDLRGPIPTWVTITTGKVHDVRMLDHLPVAKDAIYTMDRGYVDFARLHSIHKQGAFFVVRAKDNLKCQRLYSHPKDKESGVRADQIITLVTQKSKKGYPEKLRRVSYVDKERNKRLVFLTNNFEIPAATVAAIYKQRWQVELFFKWIKQHLRIKSFIGTSVNAVKSQIWVALCIYLLVAITKKKLGVPCSLYTFLQILEVNLFEKKPISSLVAEALKRNADYPERNQLNLFNY
MGSDKIHHHHHHMIDARVKFRHLQTFVEVARQKSVVKAAELLHVTQPAVTKTIRELEEVLGVAVFEREGRGIKITRYGEVFLRHAGAALTALRQGLDSVSQERSGEGPPIRVGALPTVSTRIMPRAIALFLKEKTGARIKIVTGENAVLLEQLRIGDLDLVVGRLAAPDKMTGFSFEHLYSEQVVFAVRAGHPLISGRQSLFAHLSDYPVLMPTRASIIRPFVEHFLIANGIAGLPNQIETVSDSFGRAFVRSSDAIWIISAGVVATDIADGVLAALPVDTSETRGPVGLTMRTDAIPSLPLSILMQTLREVAGTAMAAEAKRTA
MGSDKIHHHHHHMIDLQEILANMNPNQKINYDRVMQQMAKVWEKESVRPSILMHVCCAPCSTYTLEYLTQFADITVYFANSNIHPKDEYHRRAYVTQQFVSEFNAKTGNTVQFLEADYVPNEYVRQVRGLEEEPEGGDRCRVCFDYRLDKTAQKAVELGFDYFASALTISPHKNSQTINDVGIDVQKVYTTKYLPSDFKKNNGYRRSVEMCEEYDIYRQCYCGCVYAAKMQGIDLVQVKKDAKAFMADKDLDNDFTHIRFSYRGDEM
MGSDKIHHHHHHMIDPESLEALEAVVDAGSLSAAAGQLNKAVSAVGYHLRRLEEQIGVPLLDRSGYRLALTPEGKSVLAEGRPILERLRALGTFAERYHGGWEHQLRIVYDGALPAEVVIGAINALVEAGAPTHIELNVAYLGAVPFEFDRKQADVMIATAWEPRLDLIGHRLATLGFSLCCAAGHPLTMRTNVSLEELQRETELIIPGLAEDRSFDARHFRSRRILKVSDFNTKLIAIRRGLGFGWLPDYLASDLVRKGNLARVRLEGGNSYELQPVFALHRGAAPGRARQMLLDMLLLATWDTYVKPE
MGSDKIHHHHHHMIEMTRMAACAAVHHDTQATQTGAAYAPAEQGGEPRESSASAYFWVGIDAGGSHCRALLTDDSGQVLGHGVAGPANPVNGVSQSQAAIMSAIDKALGAARLDKQYHRLIVGAGLAGLHLPKMQQVMNEWAHPFAAWHTTTDLHVAALGAHQGADGGVIILGTGFSSLANVKGQQILIGGHGFPINATCSGSWFGLEAVKAVLLDADGIGPGTSLTGKLLQGTNAMALAEQLMHANATDFARFAPQVFEQAGAGDAVSLSLIEQGATFINGVIRRLLATGIDSLSLVGGIAPLMQPWLAPDLSTRIRTAKASPEEGAILFARQCHVGNSRIQER
MGSDKIHHHHHHMIFLIFSILFLHLANCDYTPDWESLDNRPLPSWYDDSKFGIFCHWGLYSDDNDKNKKYKTRSEWMWWYWKGTQPDKDVVNFVDKNYKPGTTYADFAKDVCNILLFAIESDFCSLPQSISMRINLLKLYFVFTSKHHEGFTMWPSRTSWNWNSMDIGPKRDIVGELRDAFKKTDVHFGLYFSQFEWFHPMFLDDGKFNTTFYPEQVSYPQMIDIVTKYNPEVVWSDGEWDKSDDYWKAKEFLAWLYNSSPVKDQVVVNDRWGTGTMGKHGGFMTYSDHYDPGKLLEKKWENCMTLDKHSWGNRRDMKASEVNTAYEIIEQLARTIACNGNLLLNVGPNMHGQIPAIFEDRLEEIGRFVNITSEAIFGTRPWIHQNDTSASNVWYVEFQQLSTHVFSGILPNIHRERSH
MGSDKIHHHHHHMIGFDYGTSNCGVATMRNGQPHIIPLLGNESYIASNLYAPSRDVIANWLSQQLDSPQQANFIAERKAQLQKGQAALRELKFDGISSELLFGKSALAQYLEDPEEGYYIKSPKSFLGASGLATAQIQFFEDIVACMMSNVKNLTEQALQKEVTQTVIGRPINFQGLHGEESNRQAISVLTNAAKRVGFKDVEFQYEPVAAGFEFESSLTKETRVLVVDIGGGTSDCSMLLMSPDFTDNDNRNDHLLAHTGVRVAGNDFDIQLALQGIMPSFGMNSLLKTGKPMPTSSFYQALAINNINEQTEFYSAKNRRNLVQLSRDAKETAIIERLVAVHDHKLSYQLVNAAEQAKIALTEQSKQTIDLSDVTDGLCAEVTKETLRSANKRTLESIANIMQSAVQQAQCQPDVIFVTGGTAKSPVLSEFLQQQMPNVPIVVGDHFGSVTSGLARWAEKIYQ
MGSDKIHHHHHHMIHVGTCGFCEKQDKYFQDFSTVEIQQTFYKILQESTLKKWREKAPEGFVFSIKAFQGVTHPPNSPTWRRSNVKPSKNVGLLRPTNEVIHYWKITLNEAKILNARFILIQLPRSFKESEESFSNAERFFSIIDRGEFEIAVELRGWSERGIKKFVREFDVIDVVDPMVRVPLHGGGVNYYRLHGKYENGRIIYSYKYSDEELLKIRERVLSFHVEESYVYFNNSNMCEDAQRFKQLIMKF
MGSDKIHHHHHHMIIDTHIHAYPTSDDSKMTLEEIVAQARIIGLDGICITDHDSNEIMARAHEYRKQMGYPIFVGAEVFTWEGDVIVFGLERLPEERVSARYLLDLVNKANGVAISAHPFRQNNRGMGNSIREHKDLHGVEAFNGSTDHANNMKACDLAMELGIPVFGASDAHNTEALGKFATVFPNGLKDEKDLIEAIKMGKVYPVAYNHSADAKWTVIPPIG
MGSDKIHHHHHHMIIFFQLSSPYLLDIYHLDILYGMSFIKAIIKKMSGGVLLKIIDTVPFFLKYYESSLAFLKHYYSQYPKIFNEYFAYHCKDTEERHDQSLAKYPESLLAIQQVRRAIIPIIEEVVEEYGRLYQVTFPTEVNLIVGGYGSNAYTHRQIIPDVTFALERLSPKVEHLQAIVAHDFGHVAHNILSSEAGMDWGKVQWDSPLIWLYQEGAAIHFSRQIAPQLPPAMYFSFDAEGEEWLRFFKENTHAVKSAFAHDYVQETSQSMFQEWFSINGGKRFGYNRLGYLVGDLLFQHFTKTKGERNAITAWKEGRFREEVERWFKR
